Results taken from patent US20140336119A1 (INSTITUT PASTEUR, published 2014).

What was measured:
[1] = biological target: T1, Muc2 (human, glycosylated, secreted in colonic mucus) (human, UniProt Q02817 21-5289, limits assumed, native glycosylation, with sulfated oligosaccharides); assay: fluorescent staining of fixed human colonic mucus; MUB40 probes said to display the same properties as the MUB70 probe
T1 construct: Native secreted mucin in mucus extracts or tissue, not a purified recombinant protein; also called glycoprotein Muc2
Experimental: FIG. 22. Schematic description of the Cy5-MUB40-1, Cy5-MUB40-2, Cy5-MUB40-3, Cy5-MUB40-4 peptides (SEQ ID NOS 62 to 65). Fluorescent staining of human colonic mucus was performed by the addition of 1 μg/mL of the corresponding Cy5-conjugated peptides with Phalloidin-RRX (1:100) on formol fixed, paraffin embedded samples. Image acquisition was performed using a fluorescent confocal microscope (see Methods).
FIG. 23 Comparative staining analysis of human colonic goblet cells using Cy5-MUB70 and Cy5-MUB40-1. Fluorescent staining of human colonic mucus was performed by the addition of 1 μg/mL of the corresponding Cy5-conjugated peptides with Phalloidin-RRX (1:100) on formol fixed, paraffin embedded samples. Image acquisition was performed using a fluorescent confocal microscope (see Methods).

[2] = biological target: T1, Muc2 (human, glycosylated, secreted in …); assay: staining of PFA-fixed; FIG. 31 is titled 'Identification of Muc2 in neutrophile granules'
Experimental: FIG. 31. Identification of Muc2 in neutrophile granules. Human neutrophil (PMN) granule staining using Cy5-MUB40-1, Cy5-MUB40-2, Cy5-MUB40-3, Cy5-MUB40-4 peptides. Schematic description of the Cy5-conjugated peptides. PMN were purified from healthy donor blood samples and fixed in the presence of 4% PFA. Fluorescent staining of human colonic mucus was performed by the addition of 1 μg/mL of the Cy5-conjugated peptides (Green) with Dapi (1:100) (Blue) and Phalloidin-RRX (1:1000) (Red). Image acquisition was performed using a fluorescent confocal microscope (see Methods).

[3] = biological target: Muc5b (human, in colonic mucus extract) (human, UniProt Q9HC84 26-5762, limits assumed); assay: pulldown on avidin-agarose beads, dot blot immunodetection
Experimental: (§1) Pulldown assays were performed in the presence of 600 μg biot-MUB₇₀ bound to 500 μL Avidin-agarose beads (Thermo Scientific) in a Phosphate Buffer pH=8 buffer for 1 h at 4° C. After 3 washes, 10 mg soluble human colonic mucus extract were incubated with the loaded beads for 2 h at 4° C. After 3 washes, beads were boiled in the presence of 1× Laemli buffer. As a negative control, Avidin-agarose beads were loaded with 15 μg biotin (Sigma-Aldrich) and processed using the same procedure. Experiments were performed on two independent occasions.
(§2) In order to identify a MUB₇₀ ligand present in the soluble extracts of human colonic mucus, biot-MUB₇₀, a biotinylated form of MUB₇₀, was synthesized (see Methods) in order to perform pulldown assays. Biot-MUB₇₀ was incubated with avidin beads and further with human colonic mucus extracts (produced in vitro from differentiated HT-29 MTX cells, see Methods). Biotin only was used as a negative control. […] A dot blot assay was then performed, focusing on secreted mucins, which are the major components of colonic mucus. Muc2 was immunodectected in the eluted fraction, and not in the negative control, and Muc5ac, Muc5b or Muc6, all detected in the input were absent from the eluted fraction (FIG. 4A). […] Processing a chemical deglycosylation step on the soluble mucus extract (see Methods) prior to pulldown assay abolished the interaction between Muc2 and biot-MUB₇₀ (FIG. 4A). […] [12].

[4] = biological target: Muc5ac (human, in colonic mucus extract) (human, UniProt P98088 28-5654, limits assumed); assay: as above
Experimental: as §1, §2

[5] = biological target: Muc6 (human, in colonic mucus extract) (human, UniProt Q6W4X9 23-2439, limits assumed); assay: as above
Sequence of Muc6 (human, in colonic mucus extract) (Q6W4X9 23-2439 limits assumed): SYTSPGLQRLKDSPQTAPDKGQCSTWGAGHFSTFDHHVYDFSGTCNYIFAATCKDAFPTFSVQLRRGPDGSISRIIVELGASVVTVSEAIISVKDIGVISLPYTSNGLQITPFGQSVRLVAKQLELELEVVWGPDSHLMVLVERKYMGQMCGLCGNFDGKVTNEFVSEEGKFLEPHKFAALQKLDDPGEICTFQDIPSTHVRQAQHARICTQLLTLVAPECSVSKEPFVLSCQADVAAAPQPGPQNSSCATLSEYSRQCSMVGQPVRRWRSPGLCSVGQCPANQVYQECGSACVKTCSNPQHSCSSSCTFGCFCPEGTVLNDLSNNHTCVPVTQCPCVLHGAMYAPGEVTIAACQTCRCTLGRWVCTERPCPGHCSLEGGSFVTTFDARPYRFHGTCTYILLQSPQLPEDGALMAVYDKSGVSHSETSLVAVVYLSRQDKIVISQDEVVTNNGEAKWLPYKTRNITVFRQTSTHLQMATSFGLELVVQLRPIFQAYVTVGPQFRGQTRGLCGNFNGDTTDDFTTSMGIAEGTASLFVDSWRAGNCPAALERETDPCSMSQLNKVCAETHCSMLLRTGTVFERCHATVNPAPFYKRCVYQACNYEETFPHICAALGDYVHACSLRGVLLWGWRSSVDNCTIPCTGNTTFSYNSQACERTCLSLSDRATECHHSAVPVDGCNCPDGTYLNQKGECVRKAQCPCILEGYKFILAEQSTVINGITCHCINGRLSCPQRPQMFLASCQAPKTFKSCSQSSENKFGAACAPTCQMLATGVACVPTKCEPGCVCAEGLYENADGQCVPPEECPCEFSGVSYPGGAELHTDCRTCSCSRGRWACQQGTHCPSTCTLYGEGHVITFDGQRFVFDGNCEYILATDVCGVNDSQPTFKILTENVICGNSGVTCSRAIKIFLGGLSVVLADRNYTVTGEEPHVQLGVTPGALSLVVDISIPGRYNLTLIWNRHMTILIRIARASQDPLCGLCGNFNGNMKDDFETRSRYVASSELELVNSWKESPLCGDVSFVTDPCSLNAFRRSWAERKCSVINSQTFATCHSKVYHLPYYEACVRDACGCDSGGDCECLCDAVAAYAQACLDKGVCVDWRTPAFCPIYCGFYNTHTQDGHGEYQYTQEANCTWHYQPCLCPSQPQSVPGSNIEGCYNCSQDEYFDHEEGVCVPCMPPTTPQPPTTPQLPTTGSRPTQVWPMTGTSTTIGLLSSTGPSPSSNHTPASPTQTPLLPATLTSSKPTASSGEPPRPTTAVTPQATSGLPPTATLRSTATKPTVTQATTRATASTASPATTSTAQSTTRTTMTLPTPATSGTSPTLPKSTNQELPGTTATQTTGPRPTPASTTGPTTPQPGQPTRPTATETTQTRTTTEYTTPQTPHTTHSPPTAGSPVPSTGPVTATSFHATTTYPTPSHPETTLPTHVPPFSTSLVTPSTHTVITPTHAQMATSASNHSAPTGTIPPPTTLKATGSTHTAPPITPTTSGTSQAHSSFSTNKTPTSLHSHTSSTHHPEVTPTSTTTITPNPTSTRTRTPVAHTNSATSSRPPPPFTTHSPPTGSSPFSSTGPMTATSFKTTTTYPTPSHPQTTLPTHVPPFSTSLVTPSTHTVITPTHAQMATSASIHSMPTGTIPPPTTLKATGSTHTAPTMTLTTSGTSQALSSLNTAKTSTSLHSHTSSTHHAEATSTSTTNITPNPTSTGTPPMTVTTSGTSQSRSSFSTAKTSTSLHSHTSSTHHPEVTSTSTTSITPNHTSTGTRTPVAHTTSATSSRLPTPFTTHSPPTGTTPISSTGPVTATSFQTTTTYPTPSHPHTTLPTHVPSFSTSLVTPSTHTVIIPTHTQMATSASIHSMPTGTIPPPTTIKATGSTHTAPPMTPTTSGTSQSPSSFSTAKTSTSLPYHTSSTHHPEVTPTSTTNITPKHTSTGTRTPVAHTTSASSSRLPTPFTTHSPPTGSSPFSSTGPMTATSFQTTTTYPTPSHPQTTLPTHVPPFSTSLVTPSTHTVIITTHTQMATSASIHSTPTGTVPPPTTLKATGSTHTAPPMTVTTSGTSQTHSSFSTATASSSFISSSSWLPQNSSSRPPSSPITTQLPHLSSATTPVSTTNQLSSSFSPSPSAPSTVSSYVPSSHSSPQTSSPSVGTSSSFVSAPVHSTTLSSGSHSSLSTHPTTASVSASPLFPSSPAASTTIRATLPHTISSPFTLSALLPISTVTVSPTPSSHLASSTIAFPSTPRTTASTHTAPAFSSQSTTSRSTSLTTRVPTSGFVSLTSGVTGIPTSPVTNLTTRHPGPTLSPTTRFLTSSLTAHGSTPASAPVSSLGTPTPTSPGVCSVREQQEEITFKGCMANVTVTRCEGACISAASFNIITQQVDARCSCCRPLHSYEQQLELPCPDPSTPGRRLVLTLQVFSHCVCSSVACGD
Experimental: as §1, §2

[6] = biological target: T2, Muc2 of mouse colonic mucus (mouse, UniProt Q80Z19 21-4576, limits assumed); assay: fluorescent staining of PFA-fixed mouse colon, confocal microscopy
T2 construct: The experiment stained colonic mucus; also called murine Muc2
Experimental: FIG. 11. Mucus staining using Cy5-MUB₇₀ on fixed tissues. (A) Guinea pig colon, (B) rabbit ileum and (C) mouse colon were fixed in PFA 4%. Immunofluorescent staining was performed using Cy5-MUB₇₀ (1 μg/mL) (blue). Actin is stained in red (Phall.-RRX), Muc2 is stained in green (α-Muc2). Observations were performed using a confocal microscope. Bar is 50 μm.

B1: Cy5-MUB40-1 (peptide)
peptide: Ac-C(Cy5 maleimide)TAEGIKKFEGDGYELFKDNFPAGEKFDNDDTNDQFYTVIF-NH2
notes: also called MUB40-Cy5#1; Cy5-labeled MUB40-1
B1: binds [1].

B2: Cy5-MUB40-2 (peptide)
peptide: Ac-C(Cy5 maleimide)GYTDETIPYSTAEGIKKFEGDGYELFKDNFPAGEKFDNDD-NH2
notes: also called MUB40-Cy5#2; Cy5-labeled MUB40-2
B2: binds [2].

B3: Cy5-MUB40-3 (peptide)
peptide: Ac-C(Cy5 maleimide)DQMLRQDDLDGYTDETIPYSTAEGIKKFEGDGYELFKDNF-NH2
notes: also called MUB40-Cy5#3; Cy5-labeled MUB40-3
B3: binds [2].

B4: Cy5-MUB40-4 (peptide)
peptide: Ac-C(Cy5 maleimide)VHVQYIDGETDQMLRQDDLDGYTDETIPYSTAEGIKKFEG-NH2
notes: also called MUB40-Cy5#4; Cy5-labeled MUB40-4
B4: binds [2].

B5: biot-MUB70 (biotinylated MUB70) (peptide)
peptide: CVHVQYIDGETDQMLRQDDLDGYTDETIPYSTAEGIKKFEGDGYELFKDNFPAGEKFDNDDTNDQFYTVIF
modifications: maleimide-PEG2-biotin on the added N-terminal Cys
notes: Chemically synthesized; also called biotinylated derivative of MUB70
B5: no binding [3]; no binding [4]; no binding [5].

B6: Cy5-MUB70 (peptide)
peptide: B5 peptide
modifications: Cy5 mono maleimide on the added N-terminal Cys
notes: Chemically synthesized; also called MUB70-Cy5; Cy5-labeled MUB
B6: no binding (tested: 1 µg/mL) [6].
